Here are results for 69 sequences from the domain aggregation screens of Martell et al. (2025).

The nature of the data set: soluble fraction after stress (log2 fold change); higher = more stays soluble; pooled small domains, quantitative proteomics. Conditions: stress: pH 4. In short, it runs like this: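 Following acid stress at pH 4, the amount of each small protein domain still soluble was measured in pooled custom libraries by high-throughput quantitative proteomics. Its fold change, on a log2 scale, is higher when more of the domain stayed soluble. This fold change is taken as a measure of aggregation propensity.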

With “HMDSPALAIPSSAILRDGLEHIFFRQDPSDPDQVIRVVADLGLSDGRWTVVRSGLERTDQVVLSGA”, the “soluble fraction (log2)” value is -0.281.

“HMDSQKKNETLSSTADEIIKNYAGKRDLSEESMEQLEQFQKDMRGADVNIFTAAQIRMLDQIFQENLH”: the “soluble fraction (log2)” value came out at 0.0679.

As to “HMDSSLVWVDYLLGSKLTKLNSSNELTGPGASAKTIGAFLGENKQSFDLYIESVHNARDTYSDILTHGT”, the “soluble fraction (log2)” value is -0.122.

Regarding “HMDSSSYSAKVGTLIQETRQARGMTQAQLAQALGTSQSAINRIEKGGQNISLDMLNRISEVLSSQIVTLNP”, the “soluble fraction (log2)” value was -0.255.

Consider “HMDSVAKSFLAEIERFLETAGLEPTTLGKQALGDPSFVFDLRKGRSPSTRTIGKLRVWMQQQNALS”, for which the “soluble fraction (log2)” value was -1.24.

For the sequence “HMDSVTLGISFNGKTRFTLDFPADAAAADIEKAALEAEQSQRYLEGMTVAKVIVVPGRIVNIVLK”, the “soluble fraction (log2)” value is -0.185.

Turning to “HMDSVTMYATTGVNVRSGPSTSYSIVGGLDRGDKVTRIGTSGNWTKVVWGNGSAYVFSKYLQTGY”, the “soluble fraction (log2)” value is 0.232.

On to “HMDTAEQNWRLRGKLVTLGLNARQIRMALASHAPRYLEDNIAVVERDLAAGKVRNLPAYLLAALREDYRP”, for which the “soluble fraction (log2)” value is -0.147.

Turning to “HMDTEIGDILALRQIMELLDEKDRQLIIMRYFQGLTQSVTAKNLNMTQVQVSRREKKLLTFMREQLL”, the “soluble fraction (log2)” value was -0.761.

On to “HMDTEVVMINVVGMNIDKAKNSLNHKNILYKISYQDVSEGENNVVLKQSISSNTKIKKGQVVSLVVGKLN”, for which the “soluble fraction (log2)” value was -0.0691.

Take “HMDTFEITVEESDIDKRIDLFLAGNLESFSRSYIQDLIKKGKATISGKPVKANYRLREGDSVVLSIPKPK”: the “soluble fraction (log2)” value is -0.946.

In the case of “HMDTGKLQSLVGSRGVAHTVLRPSGKVMIGDDVYPAVAETGFIPRGTAIVVRREEQGQLYVVEARK”, the “soluble fraction (log2)” value was 0.275.

As to “HMDTGPISGQVEADRVEVHGHLDGKISAQNVVVGQTGVVKGDIEFGENLRTEEGADIEGYIK”, the “soluble fraction (log2)” value is 0.22.

Consider “HMDTGPSFATRRQEAFNALTQIAASNKEFMNVAGDVLWKVADFPEAQILAQRWRRIIPPNVLGEA”, for which the “soluble fraction (log2)” value was -0.438.

On to “HMDTIAEFIAELTPLEQKVFHVYYEKGQSLKDTAQQAEITSTSARGALDRIRAKGRHFHLAVILFIG”, for which the “soluble fraction (log2)” value was -1.22.

As for “HMDTINEYERNILSLITSKPGISAVQIAADTDKSIITAKRGIKTLVDGKLIEYRGSKKTGGYFLLTQS”, the “soluble fraction (log2)” value was 0.275.

For the sequence “HMDTIYMVVAKNIKYYRLIKSMSKKDLAEAVNVTPMAISNYENGKRKPEIDILKKIANVLGVRVVDFLTVR”, the “soluble fraction (log2)” value is -0.194.

As to “HMDTKLFNYGVGKHAYISWNEGGKRTAYIGFGNDGADVLTINNVKQGGSLGIYKDKITLNSQTVLTD”, the “soluble fraction (log2)” value is -0.381.

As to “HMDTLHGRILEEFSRKIVDGTWPPGFSLPKETELADQYGVSRMTMNKVLTRLASDGFVIRRKRSGTVVAQP”, the “soluble fraction (log2)” value was -0.176.

As for “HMDTLTRAMVWTIIARAEGVDTTGGATWYAKAQEWVTAKGISDGENPNAAITRQELVTMLYRLAGEPAV”, the “soluble fraction (log2)” value is -0.681.

Consider “HMDTMQQESMDTKSILATALMELTSRKNFAKITIADITHVSGFNRQTFYYHFRDKYELLSWIY”, for which the “soluble fraction (log2)” value was -0.117.

Take “HMDTNRIIGNKIYQLRRSINMTQQELAEKVGISVTFLSEIENGRKSMSVDTLIKLSKGLQVSLDTIVF”: the “soluble fraction (log2)” value was -0.831.

For “HMDTPVYYYVNGNGVRMRKDASLESDILILLYKGTKVEYVDVKGEWIKVKYNNEIGYIRNDLLSAEMPD”, the “soluble fraction (log2)” value was -0.527.

As for “HMDTQITPNKAKEIALAHAGVTEAAANFKKIKLDNKNGKSIYEIEFIANKSRYEFIVDAKNGSIIKFEK”, the “soluble fraction (log2)” value stood at 0.102.

On to “HMDTRKEREIALYEAALRLIASGVNPAAMKVQQIADEAGIGKGTVYEYFASKEEILHGMALH”, for which the “soluble fraction (log2)” value was -0.36.

Regarding “HMDTTLFGLFQNVILTQEDYEELSRTIVEDLDGLIDRLSAYMTSTGKTYKNHKATLLSWYLQDEKKFK”, the “soluble fraction (log2)” value was -1.49.

“HMDTVEALTEQLKKLDKRGEGQIPAPEFKQYMMNMGGKMTAEELDEMMKVADPGKEGVVNIAEFADAL”: the “soluble fraction (log2)” value is -0.229.

In the case of “HMDTVEFPVQVNGKVRGKITVAADAGKDAIETAALADEKVLAFLDGATPKKVIVVPGKLVNLVVQPG”, the “soluble fraction (log2)” value is ≥ 0.43.

As to “HMDTVSYMSDAVKAGAVTPSHDEEARARYLLYAGFGAILLFLRYEASEPGDIESAIREFMERYGPVTAELY”, the “soluble fraction (log2)” value was 0.00707.

Consider “HMDTYKGFIFEVVDKYFSPTLNQKIGQAKNKQGIVLLQTKPSFTQDPKVLIEELKLIIDRDNLKA”, for which the “soluble fraction (log2)” value is -0.362.

For the sequence “HMDVAAQITYAMRTMGVAPIPRNYELFYEAYIGSNPALTKELAALGSKATQEELDELGQQYF”, the “soluble fraction (log2)” value was -1.43.

Take “HMDVFPDESLKAWLIEMGFKLDQKKMNVFTVLRRMLLQTAPSVKEFRILEIVLQQSRRKLKELNDLKKS”: the “soluble fraction (log2)” value was -0.36.

As for “HMDVKQSAAGVAGRIRFELNRTLTGQGHEKFTSASQAIGPRPAAELARRLFNSGSVVGVHVFANIVTVDLL”, the “soluble fraction (log2)” value was determined as 0.088.

As for “HMDVLKMKVEDLNIGSRTVNSLTAAKIKTVAGLIKKSKESLLELDGMGNKGVEEIILALKKLGLEL”, the “soluble fraction (log2)” value worked out at 0.345.

On to “HMDVPTEEAILAYNNVPIELAAKFIGWSDITIRYALQEERAPFGMAAQNPKTGTWSYNISPGLLLKYKSGE”, for which the “soluble fraction (log2)” value is -0.39.

In the case of “HMDVPVEVFMERIVTALREGRKTTFSELMEGKPERGKVIGTFLALLQLSKGQQIQIHQEQRTGEISIEGGA”, the “soluble fraction (log2)” value was -1.03.

“HMDVQTVTVIENVNVRKSASENGQKLGLAYTGEKLELLMKQADGWTRVKYNGETAYVKSDYV”: the “soluble fraction (log2)” value was -0.0843.

For the sequence “HMDVTSLDMLRFLMDQHGLRQQDLSELGSQGVVSEILAGKRELNLRHIGALARRFKVPPEVFLPA”, the “soluble fraction (log2)” value was -0.619.

Take “HMDVYKRQKLRNFIESLFEDAPKNKQTIELKEEMLQNLIDKYNDLVDSGKSSEAAYNIATAS”: the “soluble fraction (log2)” value was -0.0341.

For “HMDWNPVRDITAHQVLAILQATHIRAPTVAAEAKRTLSSIFQFAVATLRADIDPVWPVRNALPKNKT”, the “soluble fraction (log2)” value was -0.561.

Regarding “HMDYARYGLSEKEAELIELIAQGMNNKEISAEIYLSEGTVRNYISELLEKLELRDRTQLAVYYYTHR”, the “soluble fraction (log2)” value was -1.52.

Regarding “HMDYDDLVPLDARGRLRLDGQDIILAFGRHRGRSIEEVHNHDKSYFDWLVSPAGGLEDEVIATLRERF”, the “soluble fraction (log2)” value is -1.4.

For “HMDYENGTVKWFNTKKGYGFITRENGEDLFVHFRNIKGRGRRSLNDGEPVTFVVIEGDKGLQADQVSA”, the “soluble fraction (log2)” value was -0.754.

As to “HMDYGSLQRAIENQLEVRNYQKPKKFLTKIIQLMETIMVRHGVMVVGLTGTGKTTVIETLSRSMEQ”, the “soluble fraction (log2)” value is -0.529.

In the case of “HMDYIGIQAAKEAALKDADISSEQAVFTMAELDNKNNIFYYQIMFTENGTEYRYDIDALTGVIIEKNHFF”, the “soluble fraction (log2)” value was -0.0659.

Consider “HMDYKLDVNFPEMYLEQIPAEKRAALIQILEQDPRPSYQKDPVRIYGMSYAGMEIHFRVDKETLYVTEVER”, for which the “soluble fraction (log2)” value was -0.0453.

Consider “HMDYLSEFITDKVVRADGYSIRKGELSNEFKQWFITNVGTKNPKPKEIHDYMDRKFGKNKNGIWKNVKIKL”, for which the “soluble fraction (log2)” value was -0.0984.

As to “HMDYQEVEFEKLGKEILTKILLDINKKATKKTLKILIDGFNYDSYRSFYIAIGKAQISSDSILELLQH”, the “soluble fraction (log2)” value is -0.524.

For “HMDYSWNFFIGFSVVDKVAGNLGTIEEIDDKTINTLFLVKNDDEDLIIPATEDFVEKIDAKKRILYLNLPE”, the “soluble fraction (log2)” value was -1.79.

With “HMDYYASVDQVWRELGLAGPARRALIDDGLFKLSDLRKTSLAAVKELHGMGPNAIRILTTEMKKADLSFR”, the “soluble fraction (log2)” value was ≥ 0.43.

Consider “HMDYYDTLGVPRNASQSDIKKAYKKQSMQHHPDRTGGDDTKFKDVNEAYQVLSNSEKKQMYDQFGTA”, for which the “soluble fraction (log2)” value is 0.0201.

“HMDYYNILGVNKAATAQDIKRAYRKLAKEHHPDHGGDATRLQQVNEAYDTLKDPQRREQYDS”: the “soluble fraction (log2)” value came to 0.0634.

For “HMEAADAGTLAQRAAQYFNEKNYAAALDALERRAAMAPETTELRMMRGWSLLHLNRKDEARNAFATLG”, the “soluble fraction (log2)” value was -0.188.

As to “HMEAAIRNALSRVENPDETQRARIYRTAHDALIRNLENRGITDPEQVRPQVSRLKDLISVIEREYHG”, the “soluble fraction (log2)” value was -0.0565.

With “HMEAALTLRVDKAGSLRSLLSDEQYAKTSKIIVSGEINTLDIKTLQEMSGEKGSLQSIDLSQANIVAY”, the “soluble fraction (log2)” value was -0.351.

Regarding “HMEAFELTPREKQVLQLLVQGKAYKIIAADLDITYDTVRAHIKKIYEKLHVGSMTEAVAKAIQHKL”, the “soluble fraction (log2)” value is 0.194.

For the sequence “HMEAKKVIAVHIIGEINKPGIVELEEGARVIDAIKKAGGTTEKADLAQINLAYILKDGQKIYIPNTEDN”, the “soluble fraction (log2)” value is -0.334.

Consider “HMEALASESVKDKIRKIIDSEDPSRPMSDQRIKEMLKAANIDIARRTVTKYREAMNILSSTKRRQV”, for which the “soluble fraction (log2)” value is -0.168.

Consider “HMEALDPLTAREQEVLEMILSGKSNREIAAELHITENTVKTHAQSIYSKYDVRGRAKLISLLLKGEA”, for which the “soluble fraction (log2)” value is -0.192.

As for “HMEALQKVSINYYDEGAGKQIAEVPLEVGAGDTEIALAVINKYMPAEYNLVSTDYQIRGGYVYVSVTPA”, the “soluble fraction (log2)” value was -0.215.

Take “HMEAPPHEALSNREFQVLQLLSQGRSVTQIAHQLTLSANTISTYRARIFDKLGLHNPADLYAYAARHGLM”: the “soluble fraction (log2)” value was -0.0709.

With “HMEAPWQEIKRQVMDGLDMSREFTDEELRERIALAVRSYSKEKLLSLKVRESYEEQIFNSFR”, the “soluble fraction (log2)” value is -0.261.

Consider “HMEAQFIDINDVRIGTYVYVDLGWIKHPFALNSFKITSRDQIDTLIKLGVKRIRWSPEKSDS”, for which the “soluble fraction (log2)” value is -0.483.

In the case of “HMEARNDWAQQSRADAEFGGEKLDENLAVAKKAVEALASPELKTLLEQSGLGNHPEIIRLFYRAGRSLS”, the “soluble fraction (log2)” value is -0.122.

As to “HMEATILTATPEAAGQRLDAFLAETLPELTRSAAQRLIAEGQVAVDGKIPTKSLKLAGGETVSVRLPEPE”, the “soluble fraction (log2)” value is -0.0707.

With “HMEAVIGGIYRHYKGNNYKLLAVATHSETLEKMAVYQALYGEMGIWVRPLAMFMETIEKDGQSLKRFE”, the “soluble fraction (log2)” value is -0.932.

For the sequence “HMEDAWMKKELWDAIATLPKKQRLVMTMRLTNNHSYKEIAAILGISENSAKVSYHHAVERLKEKFK”, the “soluble fraction (log2)” value was found to be 0.0668.

Turning to “HMEDDPIYEQVMIFLLDKQITSAPELERRFKITHQRAIELLAQMEKTGIVSTMGHAGKRDVLT”, the “soluble fraction (log2)” value is -0.355.

Turning to “HMEDEFNQIASQKNVPSFLGKGKKEVINIAKKNKIKINLSGNGYVKRQIPAPGEVISHLDEVTIFLEPG”, the “soluble fraction (log2)” value was -0.179.
